The values that follow are results of earlier work, collected in PMC2900478.

This data set addresses GABARAP (Homo sapiens) (UniProt O95166).
Chain of UniProt O95166 (O95166 1-116): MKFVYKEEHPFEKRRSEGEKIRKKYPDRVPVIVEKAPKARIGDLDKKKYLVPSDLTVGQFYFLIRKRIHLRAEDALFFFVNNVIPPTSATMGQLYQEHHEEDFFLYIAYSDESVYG

In the case of Nix (from UniProt O60238), the Kd (commonly the free concentration of one partner at which half of the binding sites on the other are occupied at equilibrium, for simple one-to-one binding) is 100 µM.
